Measurements taken from US20230192799A1 (BIOMARIN PHARMACEUTICAL, published 2023).
Bridge positions count the residues as written; N and C are the ends. Ends that are not written are not given here.

B1: CNP-7 (peptide)
peptide: Ac-PGQEHPNARRYRGANRRGLSRGCFGLKLDRIGSMSGLGC-NH2
modifications: disulfide 23-39 (inferred)
B2: Pro-Gly CNP-37 (peptide)
peptide: PGQEHPNARKYKGANKKGLSKGCFGLKLDRIGSMSGLGC
modifications: disulfide 23-39 (inferred)
B3: CNP-6 (peptide)
peptide: Ac-PGQEHPNARRYRGANRRGLSRGCFGLKLDRIGSMSGLGC-OH
modifications: disulfide 23-39 (inferred)
B4: CNP-9 (peptide)
peptide: Ac-PGQEHPQARRYRGAQRRGLSRGCFGLKLDRIGSMSGLGC-NH2
modifications: disulfide 23-39 (inferred)
B5: CNP-8 (peptide)
peptide: Ac-PGQEHPQARRYRGAQRRGLSRGCFGLKLDRIGSMSGLGC-OH
modifications: disulfide 23-39 (inferred)
B6: CNP-5 (peptide)
peptide: Ac-PGQEHPNARKYKGANKKGLSKGCFGLKLDRIGSMSGLGC-NH2
modifications: disulfide 23-39 (inferred)

target: natriuretic peptide receptor-B (NPR-B) on the cells of the cGMP stimulation assay of Example 2; assay: cell-based or functional assay

How did the “EC50, T0 (cGMP stimulation assay)” value turn out when B1 was run?
Its value is 2.1 nM.

How did the “EC50, T0 (cGMP stimulation assay)” value turn out when B2 was run?
The value was 1.7 nM.

B3 was tested. Which “EC50, T0 (cGMP stimulation assay)” value did it give?
The value was 0.4 nM.

Which “EC50, T0 (cGMP stimulation assay)” value does the source give for B4 here?
Its value is 0.9 nM.

B5 was tested. Which “EC50, T0 (cGMP stimulation assay)” value did it give?
The value was 0.2 nM.

How did the “EC50, T0 (cGMP stimulation assay)” value turn out when B6 was run?
The value was 3 nM.
